This is an account of results in patent US20070243589A1 (Pfizer, published 2007).

Residue numbers refer to the chain shown, from its start.

In assay [1] the target is T1, biotinylated IL-22 with an N-terminal His/FLAG tag (bio.IL-22H/F) (human, UniProt Q9GZX6 34-179, biotinylated (site not stated)).
T1 construct: not shown: N-terminal His/FLAG tag
T1 sequence: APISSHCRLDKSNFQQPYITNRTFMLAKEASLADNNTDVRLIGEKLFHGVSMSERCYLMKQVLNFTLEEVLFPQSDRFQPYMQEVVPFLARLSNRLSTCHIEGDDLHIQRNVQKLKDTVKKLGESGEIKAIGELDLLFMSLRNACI
The assay can be described thus: biotinylated IL-22 binding IL-22 receptor complex competition assay, purified scFv, parent. Here is the method: (§1) Microtiter plates were coated with an IL-22 receptor complex antibody (1 μg/ml in PBS), and incubated for 1.5 hours at room temperature. Plates were washed three times in PBST, and blocked for 1 hour at room temperature with 2% MPBS. After a further 3 washes, diluted cell conditioned medium containing an IL-22 receptor complex was added and incubated overnight at 4° C. Crude scFv supernatants were prepared as described above. The following day, 25 μl of diluted scFv sample and 25 μl of bio.IL-22H/F (6 ng/ml) were added to the washed plates, and incubated for 1.5 hours at room temperature. Plates were washed 3 times in PBST, then binding of bio.IL-22H/F to the IL-22 receptor complex was detected with Europium-Streptavidin and the DELFIA® reagent kit (PerkinElmer). Time Resolved Fluorescence was measured using a Victor 2™ Plate Reader (Perkin Elmer).
Sequence data for the six parent clones was used to identify the nearest germline sequence for the heavy and light chain of each clone. Appropriate mutations were made using standard site directed mutagenesis techniques with the appropriate mutagenic primers. Mutation of sequences was confirmed by sequence analysis. Purified scFv from the germlined parent clones were tested in the biotinylated IL-22 binding IL-22 receptor complex competition assay as described earlier, in order to establish the clone potency as measured by IC₅₀ values in the assay.

In assay [2] the target is T1, biotinylated IL-22 with an N-terminal …. The assay can be described thus: IL-22 receptor complex inhibition assay (bio.IL-22H/F binding to IL-22 receptor complex, DELFIA), scFv. Here is the method: (§2) Both the IL-22/IL-22R binding assay (described above) and the IL-22/IL-22 receptor complex assay (described below) were used. ScFv concentrations were titrated in order to establish the clone potencies as measured by assay IC₅₀ values. These were determined using GraphPad Prism software and four-parameter logistic equation curve fitting.
as §1

Assay [3] has the same target. Description: DELFIA competition assay: scFv titrated against bio.IL-22H/F binding to the captured IL-22 receptor complex. Here is the method: as §2, §1
For assay [4] the target is unchanged. The assay is described as above. Here is the method: as §1
(§3) Purified scFv from positive clones identified from the screening were tested in the DELFIA® IL-22 receptor complex competition assay as described above. A titration of scFv concentrations was used in order to establish the clone potency as measured by IC₅₀ values in the assay. Fourteen optimized clones were designated 097D09, 062A09, 062G05, 087B03, 367D04, 368D04, 166B06, 166G05, 375G06, 376B10, 354A08, 355B06, 355E04, and 356A11.
This is another data set of the same source.

The target is the same in assay [5]. Described as above. Here is the method: as §1, §3
The source holds these as a separate data set.

The target in assay [6] is T2, human IL-22 (human, UniProt Q9GZX6 34-179).
T2 sequence: T1 sequence
Description: cell-based or functional assay.

The target in assay [7] is T2, human IL-22. Description: cell-based or functional assay. This is another data set of the same source.
Assay [8] has as its target T3, BSA (bovine, UniProt P02769).
T3 construct: background wells labelled BSA; also called bovine serum albumin
The assay can be described thus: ELISA: wells labelled BSA, IgG at 1 µg/ml, HRP anti-human IgG, A450. The essentials: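 Plates coated overnight with 1 μg/ml rat, mouse or human IL-22 or human IL-26 in PBS, then blocked with 1% BSA/PBST for 1 hr at RT. Antibodies bound for 1 hr at 25°C. After a further 1 hr at 25°C, signal developed with TMB, stopped with acid and read at 450 nm.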
On the technique in general: ELISA stands for enzyme-linked immunosorbent assay.

Assay [9] concerns the target T4, murine IL-22 (murine, UniProt Q9JJY9 34-179).
T4 construct: also called mouse IL-22
T4 sequence: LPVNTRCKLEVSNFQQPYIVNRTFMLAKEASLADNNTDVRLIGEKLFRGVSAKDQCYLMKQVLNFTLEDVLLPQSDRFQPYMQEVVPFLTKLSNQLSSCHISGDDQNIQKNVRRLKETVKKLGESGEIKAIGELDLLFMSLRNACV
Description: ELISA: plate coated with 1 µg/ml antigen, IgG at 1 µg/ml, HRP anti-human IgG, A450. Here is the method: (§4) Cross species reactivity of germlined and non-germlined optimized antibodies were determined as follows: ELISA plates (Costar, Cat. #3590) were coated overnight with 1 μg/ml of rat, mouse, or human IL-22 or human IL-26 in PBS buffer. Plates were washed with PBST buffer (0.05% Tween20 in PBS) 3 times, then blocked with 1% BSA (Sigma A8918)/PBST for 1 hr at RT. Antibodies were added at 1 μg/ml, incubated 1 hr at 25° C. […] The plates were incubated for 1 hour at 25° C., then washed with PBST, and developed with TMB (KPL, Cat. #50-76-04). Reaction was stopped with 0.18 M H₂S0₄. Plates were read at OD 450 nm.

For assay [10], the target named is T5, IL-26 (human, UniProt Q9NPH9).
T5 construct: coated on the ELISA plate at 1 µg/ml; also called human IL-26
T5 sequence (cytokine, looked up): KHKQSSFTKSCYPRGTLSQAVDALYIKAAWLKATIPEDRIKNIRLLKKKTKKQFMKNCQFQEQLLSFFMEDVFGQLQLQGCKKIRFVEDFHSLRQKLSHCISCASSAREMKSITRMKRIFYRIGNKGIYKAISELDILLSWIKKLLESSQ
Description: ELISA: plate coated with 1 µg/ml human IL-26, IgG at 1 µg/ml, HRP anti-human IgG, A450. Here is the method:
as §4

T3 sequence (P02769 25-607 limits assumed): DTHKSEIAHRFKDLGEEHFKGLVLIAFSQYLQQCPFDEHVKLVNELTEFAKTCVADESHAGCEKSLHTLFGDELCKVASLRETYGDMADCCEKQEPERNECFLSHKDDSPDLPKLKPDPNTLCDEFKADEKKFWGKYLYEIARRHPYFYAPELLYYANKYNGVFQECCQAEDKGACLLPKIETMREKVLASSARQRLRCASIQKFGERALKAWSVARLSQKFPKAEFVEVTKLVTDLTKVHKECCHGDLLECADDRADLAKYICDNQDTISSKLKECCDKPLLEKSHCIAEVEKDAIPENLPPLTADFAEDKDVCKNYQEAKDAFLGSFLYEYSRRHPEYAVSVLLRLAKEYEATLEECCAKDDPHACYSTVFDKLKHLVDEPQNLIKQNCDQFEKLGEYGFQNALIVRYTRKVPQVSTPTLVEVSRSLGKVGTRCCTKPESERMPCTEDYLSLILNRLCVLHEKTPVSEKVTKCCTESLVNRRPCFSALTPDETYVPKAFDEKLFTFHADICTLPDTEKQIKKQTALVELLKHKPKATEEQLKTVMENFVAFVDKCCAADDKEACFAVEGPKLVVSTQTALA

B1: GIL68 scFv (non-germlined parent) (scFv)
scFv: EVQLVQSGAEVKKPGASVKVSCQASGYTFSDYYIHWVRQTPGQGFEWMGWVNPDTGGTRYAQKFQGWVTMTRDMSNTTAYMELPRLRDDDTAVYYCARDLTGFDPFDIWGQGTLVTVSSGGGGSGGGGSGGGGSAQSVLTQPPSVSVAPGKTATITCGGNNFRNKRVHWYQQRPGQAPVLVIYYDSDRPSGIPERFSGSRSGNTATLTISRVEAGDEADFYCQVWDSSTDRPLFGGGTKLTVLGAAA
The IC50 is the concentration that gives 50% inhibition. For the molecule B1, the IC50 stood at 9000 pM in assay [1]; 7000 pM in assay [2]; 10000 pM in assay [3]; 7450 pM in assay [4]; 10600 pM in [5].

B2: 355B06 germlined IgG (antibody, V domains shown)
VH: QVQLVQSGAEVKKPGASVKVSCKASGYTFTDYYMHWVRQAPGQGLEWVGWINPYTGSAFYAQKFRGRVTMTRDTSISTAYMELSRLRSDDTAVYYCAREPEKFGESSGQLWGRGTLVTVSS
VL: QAVLTQPPSVSGAPGQRVTISCTGSSSNIGAGYGVHWYQQLPGTAPKLLIYGDSNRPSGVPDRFSGSKSGTSASLAITGLQAEDEADYYCQSYDSGLSGYVFGGGTQLTVLG
Consider B2, for which the “IC50 of IgG in BaF3-IL-22 proliferation assay” value (“IC50 of IgG” below) in assay [6] came to 92 pM. Further, in [7], the “IC50 (pM) of germlined IgG in BaF3-IL-22R proliferation assay” value came to 92 pM. In addition, the binding result in [8] is recorded as “no binding (tested: 1 µg/ml (single concentration))”; in [9] it was “binds”; in [10], “no binding (tested: 1 µg/ml (single concentration))”.

B3: 355E04 germlined IgG (antibody, V domains shown)
VH: B2 VH with D31H, S57G, R65Q, G104D, E105S, S106P, S107N, G108A, Q109E, L110I
VL: B2 VL with D53N, G96S
B3: the “IC50 of IgG” value in assay [6] was 100 pM. In addition, in [7], the “IC50 (pM) of germlined IgG in BaF3-IL-22R proliferation assay” value is 100 pM. For the same molecule, the results for the binding result in [8], in [9] and in [10] were “no binding (tested: 1 µg/ml (single concentration))”, “binds” and “no binding (tested: 1 µg/ml (single concentration))”, respectively.

B4: 368D04 IgG (non-germlined) (antibody, V domains shown)
VH: EVQLVESGGGVVRPGGSLRLSCAASGFTFDDYGMNWVRQAPGKGLEWVSGVNWNGGTRDYAASVKGRFTISRDNAKNSLYLQMNSLRAEDTALYYCARGWYSGAAWNMGYWGRGTLVTVSS
VL: QAVLTQPSSVSGSPGQSITISCTGASGDVGAYNFVSWYQQHPGKTPKLIIYDVNKRPSGVSNRFSGSKSGNTASLTISGLQAEDESDYYCASLVSDFSVVFGGGTKVTVLG
As to B4, the “IC50 of IgG” value in assay [6] was 127 pM. Further, the binding result is listed as “no binding (tested: 1 µg/ml (single concentration))” in [8], “binds” in assay [9] and “no binding (tested: 1 µg/ml (single concentration))” in assay [10].

B5: 097D09 IgG (non-germlined) (antibody, V domains shown)
VH: EVQLVESGGGLVTPGGSLRLSCAASGFTFSDYYMSWVRQAPGRGLEWVSAISGSGGSTYYADSVKGRITISRDNAKNSLYLQMSSLRSEDTAVYYCARGLWVWDPLDYWGRGTLVTVSS
VL: DIQMTQSPSTLSASIGDRVTITCRASEGIYHWLAWYQQKPGKAPKLLIYKASSLASGAPSRFSGSGFGTDFTLTISSLQPDDFATYYCQQYSEFAWTFGGGTKLEIKR
notes: IgG
On to B5, for which the “IC50 of IgG” value in assay [6] is 197 pM. Moreover, the binding result in assay [8], in assay [9] and in assay [10] was “no binding (tested: 1 µg/ml (single concentration))” throughout.

B6: 166B06 scFv (non-germlined) (scFv)
scFv: EVQLVQSGAEVKKPGASVKVSCQASGYTFSDYYIHWVRQTPGQGFEWMGWVNPDTGGTRYAQKFQGWVTMTRDMSNTTAYMELPRLRDDDTAVYYCARDLTGFDPFDIWGQGTLVTVSSGGGSSGGGGSGGGGSAQSVLTQPPSVSVAPGKTATITCGGNNFRNKRVHWYQQRPGQAPVLVIYYDSDRPSGIPERFSGSRSGNTATLTISRVEAGDEADFYCQVWDLFNDNGVFGGGTKLTVLGAAAH
notes: Optimized clone derived from GIL68
Take B6: the “IC50 of scFv in BaF3-IL-22 proliferation assay” value in assay [6] worked out at 460 pM. Further, the half-inhibitory concentration (IC50) in assay [5] was 620 pM.
